This is an account of results in publication PMC3905892 (Nucleic Acids Research, 2013).

The target of the experiment is Paf1(57–392) (human, UniProt Q8N7H5 57-392). Briefly: SEC. (Size exclusion chromatography separates by hydrodynamic size, large species first.)

B1: Leo1(277–562) (domain or fragment)
chain: SDSEDEVLRMKRKNAIASDSEADSDTEVPKDNSGTMDLFGGADDISSGSDGEDKPPTPGQPVDENGLPQDQQEEEPIPETRIEVEIPKVNTDLGNDLYFVKLPNFLSVEPRPFDPQYYEDEFEDEEMLDEEGRTRLKLKVENTIRWRIRRDEEGNEIKESNARIVKWSDGSMSLHLGNEVFDVYKAPLQGDHNHLFIRQGTGLQGQAVFKTKLTFRPHSTDSATHRKMTLSLADRCSKTQKIRILPMAGRDPECQRTEMIKKEEERLRASIRRESQQRRMREKQHQ
One may read the stoichiometry N as the number of molecules, sites or subunits per partner or assembly. Consider B1, for which the “stoichiometry N” value was 1.
